Data: PMC10900206

Biological target: Fhb7
Test: crystal structure

For Fhb7 (enzyme), the stoichiometry N was 2.
